Experiments:
[1] = target: T1, recombinant human PSMA protein (human, UniProt Q04609 44-750); assay: ELISA, plates coated with 1 ug/mL recombinant human PSMA
T1 construct: On Blue native PAGE the protein appeared to be a mixture of dimer and monomer; also called recombinant human PSMA (Acro Biosciences / Acro Biosystems; printed 'Aero')

[2] = target: T2, human PSMA expressed on prostate cancer cell lines (22Rv1, C4-2B, PC3-PSMA) (human, UniProt Q04609 1-750); assay: flow cytometry on PSMA-expressing 22Rv1 cells, PE anti-human IgG-Fc secondary, MFI
T2 construct: Endogenous PSMA on 22Rv1 and C4-2B cells; PC3 cells were engineered to express PSMA; also called prostate specific membrane antigen; FOLH1
T2 sequence (Q04609 whole entry): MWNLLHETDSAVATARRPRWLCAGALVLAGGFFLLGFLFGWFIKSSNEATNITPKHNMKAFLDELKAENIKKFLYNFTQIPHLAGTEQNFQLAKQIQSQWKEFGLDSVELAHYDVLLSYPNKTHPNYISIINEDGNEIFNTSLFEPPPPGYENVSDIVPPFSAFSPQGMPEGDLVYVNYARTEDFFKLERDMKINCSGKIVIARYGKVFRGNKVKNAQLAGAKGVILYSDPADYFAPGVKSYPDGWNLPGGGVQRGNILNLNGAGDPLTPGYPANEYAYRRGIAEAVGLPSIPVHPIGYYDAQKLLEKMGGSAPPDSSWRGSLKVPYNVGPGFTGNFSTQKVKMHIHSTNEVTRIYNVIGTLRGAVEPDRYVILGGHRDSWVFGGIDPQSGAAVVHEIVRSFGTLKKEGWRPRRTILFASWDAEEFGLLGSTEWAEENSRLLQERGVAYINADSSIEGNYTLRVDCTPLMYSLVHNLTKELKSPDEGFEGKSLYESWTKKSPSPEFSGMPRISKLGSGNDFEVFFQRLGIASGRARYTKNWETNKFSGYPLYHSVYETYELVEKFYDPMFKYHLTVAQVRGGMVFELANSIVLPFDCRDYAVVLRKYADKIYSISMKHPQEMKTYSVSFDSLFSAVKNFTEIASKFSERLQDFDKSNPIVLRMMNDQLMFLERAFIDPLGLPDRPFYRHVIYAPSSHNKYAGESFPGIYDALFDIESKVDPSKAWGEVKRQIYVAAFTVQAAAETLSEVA

T1 sequence (Q04609 44-750 limits assumed): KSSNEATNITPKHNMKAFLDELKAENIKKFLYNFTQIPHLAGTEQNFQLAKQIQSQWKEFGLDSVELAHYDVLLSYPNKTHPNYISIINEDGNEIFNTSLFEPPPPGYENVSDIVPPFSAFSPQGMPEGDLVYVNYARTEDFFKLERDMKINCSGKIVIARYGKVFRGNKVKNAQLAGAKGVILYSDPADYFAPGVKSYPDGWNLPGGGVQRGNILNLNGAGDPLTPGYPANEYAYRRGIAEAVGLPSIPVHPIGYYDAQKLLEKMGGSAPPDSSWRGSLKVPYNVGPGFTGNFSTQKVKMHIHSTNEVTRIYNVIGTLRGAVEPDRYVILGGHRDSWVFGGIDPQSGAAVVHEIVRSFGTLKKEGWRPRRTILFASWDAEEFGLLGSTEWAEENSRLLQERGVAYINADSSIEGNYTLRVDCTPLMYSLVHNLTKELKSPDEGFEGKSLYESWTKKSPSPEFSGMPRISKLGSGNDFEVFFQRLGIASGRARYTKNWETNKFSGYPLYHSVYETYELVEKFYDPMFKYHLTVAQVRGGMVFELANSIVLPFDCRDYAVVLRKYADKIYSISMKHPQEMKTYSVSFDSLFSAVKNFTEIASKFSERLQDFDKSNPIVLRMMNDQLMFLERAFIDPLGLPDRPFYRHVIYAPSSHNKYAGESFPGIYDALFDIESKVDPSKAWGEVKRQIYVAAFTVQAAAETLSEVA

B1: benchmark antibody J591 (antibody, V domains shown)
VH: EVQLQQSGPELKKPGTSVRISCKTSGYTFTEYTIHWVKQSHGKSLEWIGNINPNNGGTTYNQKFEDKATLTVDKSSSTAYMELRSLTSEDSAVYYCAAGWNFDYWGQGTTLTVSS
VL: DIVMTQSHKFMSTSVGDRVSIICKASQDVGTAVDWYQQKPGQSPKLLIYWASTRHTGVPDRFTGSGSGTDFTLTITNVQSEDLADYFCQQYNSYPLTFGAGTMLDLK
notes: It was detected with anti-human IgG Fc secondary antibody; also called Benchmark (J591)
[1]
  binding result: binds
[2]
  binding result: binds

From EP4568683A2 (dated 2025)
